Read-outs that look alike come from different tables or passages of the source.
Tests used:
Experiment in all cases: SPR
[1] = target: afucosylated Trastuzumab (TZM‐AF)
[2] = target: galactosylated Trastuzumab (TZM‐GT)
[3] = target: afucosylated Trastuzumab (TZM‐AF); remark: listed apart in the source
[4] = target: galactosylated Trastuzumab (TZM‐GT); remark: listed apart in the source

FcγRIIA (from UniProt P12318) (receptor)
Kd [1]: 250 nM
SPR signal at 300 nM receptor [1]: 40 RU
Kd [2]: 180 nM
SPR signal at 300 nM receptor [2]: 40 RU
Kd [3]: 200 nM
Kd [4]: 170 nM

FcγRIIB (from UniProt P31994) (receptor)
Kd [1]: 180 nM
SPR signal at 300 nM receptor [1]: 40 RU
Kd [2]: 260 nM
SPR signal at 300 nM receptor [2]: 40 RU
Kd [3]: 170 nM
Kd [4]: 220 nM
